We go through 3 substances from paper PMC6265447, “The bacterial Mre11–Rad50 homolog SbcCD cleaves opposing strands of DNA by two chemically distinct nuclease reactions” (Nucleic Acids Research, 2018).

Data set [1] addresses SbcC;SbcD H84Q H84Q (Escherichia coli;Escherichia coli) (UniProt P13458+P0AG76). The data set is described as follows: fluorescence anisotropy. As to conditions: 5 mM Mg2+, 1 mM Mn2+; 25 mM Tris pH 7.5, 50 mM KCl, 5 mM MgCl2, 1 mM MnCl2, 1 mM DTT, 1 mM ATP where stated; 5 nM DNA, 2-1000 nM SbcCD, 20 min at 25 C. In general terms: Polarisation of emitted light reports the rotation of a fluorescent probe.

The test system of data set [2] is T1, Nc1ncnc2c1ncn2[C@@H]1O[C@H](COP(=O)(O)OP(=O)(O)OP(=O)(O)O)[C@@H](O)[C@H]1O.
T1 construct: full-length SbcC (pET28) and SbcD with C-terminal His6 (pET21b), co-expressed in E. coli BL21(DE3); SbcC2-SbcD2 heterotetramer; printed 4M0V is the SbcD dimer structure only; with Nuclease SbcCD subunit D
As to the kind of experiment: NADH-coupled (PK/LDH) ATPase assay, Michaelis-Menten fit. The class given is biochemical, Escherichia coli. The following applies: dsDNA present, 5 mM MgCl2, 1 mM MnCl2, 50 mM KCl, 25 mM Tris pH 7.5, 37°C.

What is called Kd is the free concentration of one partner at which half of the binding sites on the other are occupied at equilibrium, for simple one-to-one binding. A higher Kd goes with lower affinity. Turning to 60 bp DNA, GC-rich positions 15-29, the Kd in data set [1] stood at 132 nM. What is called Km is the substrate concentration at which the rate is half of its maximum. SbcCD (Escherichia coli K-12): in data set [2], the Km came out at 46 ± 6 µM.

Regarding 60 bp DNA, AT-rich positions 15-29, the Kd in data set [1] came out at 45 nM.
